± gives the uncertainty stated by the source.
experiment: amyloid nucleation score (Sup35N fusion, yeast selection) (log enrichment); library NNK2; higher = more nucleation; inactive = no reads after selection
Method in brief: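 Growth for 7 days at 30°C on medium lacking adenine and uracil followed a 24-hour induction with 100 μM copper sulfate of psi-negative yeast expressing peptides of 20 random codons fused to Sup35N. Input and output plasmid inserts were sequenced with Illumina, and sequences with under 100 input reads were excluded. Nucleation score is the DiMSum log enrichment of output over input reads, centred on the mode score of non-aggregating sequences.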

Question: Which amyloid nucleation score does the source give for FSMRSKQGRTFTRLQDGSGL here?
Answer: Its amyloid nucleation score is 4 ± 0.046.

Question: With FSNIVNCSDRCATCVYFEFV as the substance, how does the amyloid nucleation score read?
Answer: Its amyloid nucleation score is 4.808 ± 0.047.

Question: Which amyloid nucleation score does the source give for FSNSHIVMVENLTDIVSVTT here?
Answer: Its amyloid nucleation score is “inactive”.

Question: Which amyloid nucleation score does the source give for FSRVESEIHSHWPW here?
Answer: The amyloid nucleation score was 5.639 ± 0.041.

Question: For FSSNTKSNKRIDV, which amyloid nucleation score is on record?
Answer: The amyloid nucleation score was 0.147 ± 0.8.

Question: For FSSRNFNLCRKTYWWCDSYQ, which amyloid nucleation score is on record?
Answer: Its amyloid nucleation score is -0.066 ± 1.

Question: With FSSWAFLMSRLCYHDSESHL as the substance, how does the amyloid nucleation score read?
Answer: The amyloid nucleation score was 0.417 ± 0.16.

Question: With FSTHDIGSRKWARQYLYVVH as the substance, how does the amyloid nucleation score read?
Answer: The amyloid nucleation score was 0.334 ± 0.31.

Question: Which amyloid nucleation score does the source give for FSVRLSELSMTNLSTQYEIS here?
Answer: The amyloid nucleation score was 1.82 ± 0.15.

Question: Which amyloid nucleation score does the source give for FSWDPGMIWGKI here?
Answer: The amyloid nucleation score was 7.203 ± 0.053.

Question: Which amyloid nucleation score does the source give for FTFFIRYLERDWPRLL here?
Answer: The amyloid nucleation score was -0.549 ± 0.74.

Question: For FTKSKWLWSRAAFLRIDRW, which amyloid nucleation score is on record?
Answer: Its amyloid nucleation score is 0.799 ± 0.74.

Question: For FTVVIINISYTLSVLRERQM, which amyloid nucleation score is on record?
Answer: The amyloid nucleation score was 1.5 ± 0.14.

Question: Which amyloid nucleation score does the source give for FTWVYMVGFKWWVSVCLLDS here?
Answer: Its amyloid nucleation score is -0.551 ± 0.28.

Question: Which amyloid nucleation score does the source give for FTYLIEARG here?
Answer: The amyloid nucleation score was 1.02 ± 0.41.

Question: With FTYRPISRNM as the substance, how does the amyloid nucleation score read?
Answer: Its amyloid nucleation score is 4.99 ± 0.076.

Question: Which amyloid nucleation score does the source give for FVDRTCLVRSMLRVLPITGG here?
Answer: The amyloid nucleation score was 0.065 ± 0.61.

Question: With FVFLVYYFSEFIH as the substance, how does the amyloid nucleation score read?
Answer: Its amyloid nucleation score is “inactive”.

Question: For FVFYSEEGLGHDLSNFTGGI, which amyloid nucleation score is on record?
Answer: Its amyloid nucleation score is “inactive”.

Question: With FVLMMDYEIIFLN as the substance, how does the amyloid nucleation score read?
Answer: Its amyloid nucleation score is 4.52 ± 0.071.

Question: With FVLSMVLSIILLSLSHHLFG as the substance, how does the amyloid nucleation score read?
Answer: The amyloid nucleation score was 2.33 ± 0.2.

Question: With FVNQPKVRYLVSCYFMANLP as the substance, how does the amyloid nucleation score read?
Answer: Its amyloid nucleation score is 0.016 ± 0.54.

Question: For FVRASGHTTCYSCQLSTPGP, which amyloid nucleation score is on record?
Answer: The amyloid nucleation score was 1.34 ± 0.15.

Question: Which amyloid nucleation score does the source give for FVRGDSGFTLNAAR here?
Answer: The amyloid nucleation score was -0.288 ± 0.3.

Question: With FVRSIDNSAYLLWVSLYPCM as the substance, how does the amyloid nucleation score read?
Answer: The amyloid nucleation score was -0.364 ± 0.79.

Question: With FVRSWSTCCDA as the substance, how does the amyloid nucleation score read?
Answer: Its amyloid nucleation score is -0.176 ± 0.31.

Question: With FVRVCLSVIRYFTVTPGFKD as the substance, how does the amyloid nucleation score read?
Answer: Its amyloid nucleation score is “inactive”.

Question: Which amyloid nucleation score does the source give for FVSGDHGTVWYIT here?
Answer: Its amyloid nucleation score is -0.036 ± 0.48.

Question: For FVSGRKNETYSKVIHVSDVD, which amyloid nucleation score is on record?
Answer: The amyloid nucleation score was -0.198 ± 0.62.

Question: Which amyloid nucleation score does the source give for FVSSII here?
Answer: The amyloid nucleation score was -1.29 ± 0.39.

Question: Which amyloid nucleation score does the source give for FVWSKSR here?
Answer: Its amyloid nucleation score is 2.88 ± 0.13.

Question: With FVYVIFQSNMGPYWRNRRLL as the substance, how does the amyloid nucleation score read?
Answer: The amyloid nucleation score was 0.636 ± 0.81.

Question: For FVYWFKYT, which amyloid nucleation score is on record?
Answer: Its amyloid nucleation score is -1.2 ± 1.1.

Question: For FWLNMYSVETVYGVVFAWEK, which amyloid nucleation score is on record?
Answer: Its amyloid nucleation score is -0.694 ± 0.31.

Question: Which amyloid nucleation score does the source give for FWVFTNIESMGLAYCDNQDL here?
Answer: The amyloid nucleation score was 3.09 ± 0.064.

Question: For FWVLDSSADYRAS, which amyloid nucleation score is on record?
Answer: Its amyloid nucleation score is 5.62 ± 0.075.

Question: For FWYCTHTTSYDGTLNSEWVT, which amyloid nucleation score is on record?
Answer: Its amyloid nucleation score is 0.307 ± 0.26.

Question: For FWYSCR, which amyloid nucleation score is on record?
Answer: The amyloid nucleation score was -0.889 ± 0.41.

Question: For FYCRVFTLSGFVRIWGDC, which amyloid nucleation score is on record?
Answer: The amyloid nucleation score was -0.562 ± 1.1.

Question: For FYGVNVRIRCKH, which amyloid nucleation score is on record?
Answer: Its amyloid nucleation score is 0.486 ± 0.66.

Question: With FYHCFDVLSSQMYYLKLLST as the substance, how does the amyloid nucleation score read?
Answer: The amyloid nucleation score was “inactive”.

Question: For FYKDKETCLECWMIYENCRK, which amyloid nucleation score is on record?
Answer: Its amyloid nucleation score is -0.29 ± 0.32.

Question: Which amyloid nucleation score does the source give for FYKNAP here?
Answer: Its amyloid nucleation score is -1.06 ± 1.1.

Question: With FYLRGHACDSSWSNLVVGLW as the substance, how does the amyloid nucleation score read?
Answer: The amyloid nucleation score was 4.8 ± 0.083.

Question: With FYNRFRGFIFV as the substance, how does the amyloid nucleation score read?
Answer: The amyloid nucleation score was “inactive”.

Question: With FYPAEFYGKGLVDRTLFFIC as the substance, how does the amyloid nucleation score read?
Answer: Its amyloid nucleation score is 0.12 ± 0.18.

Question: For FYRGT, which amyloid nucleation score is on record?
Answer: Its amyloid nucleation score is -0.974 ± 0.55.

Question: With FYSFGGNGDYSPKSGHWS as the substance, how does the amyloid nucleation score read?
Answer: The amyloid nucleation score was “inactive”.

Question: With FYSLILMMEDGSEYVKVEFR as the substance, how does the amyloid nucleation score read?
Answer: Its amyloid nucleation score is -1.38 ± 0.75.

Question: Which amyloid nucleation score does the source give for FYSSPILM here?
Answer: Its amyloid nucleation score is -0.927 ± 0.41.

Question: For FYVRGGCI, which amyloid nucleation score is on record?
Answer: The amyloid nucleation score was -2.22 ± 0.76.

Question: With FYYLWWDSFRIVISMR as the substance, how does the amyloid nucleation score read?
Answer: Its amyloid nucleation score is -1.86 ± 0.62.

Question: With GACGVSEVMHRVVFRGRLKR as the substance, how does the amyloid nucleation score read?
Answer: The amyloid nucleation score was 0.4 ± 0.39.

Question: For GADAGDCPRNHSCAMHAEGF, which amyloid nucleation score is on record?
Answer: The amyloid nucleation score was 1.13 ± 0.46.

Question: Which amyloid nucleation score does the source give for GAEFTFGLFTYEFGIGQG here?
Answer: The amyloid nucleation score was 0.285 ± 0.57.

Question: Which amyloid nucleation score does the source give for GAGLRCLFGNSGYGERCVTM here?
Answer: Its amyloid nucleation score is 0.82 ± 0.44.

Question: For GAGPGSLAKRHYWDSSSQYE, which amyloid nucleation score is on record?
Answer: Its amyloid nucleation score is -0.024 ± 0.31.

Question: Which amyloid nucleation score does the source give for GAGWFNDFVHLPWHLEVSNY here?
Answer: The amyloid nucleation score was -1.17 ± 1.1.

Question: Which amyloid nucleation score does the source give for GAIDLMDALRCPAKTDTR here?
Answer: Its amyloid nucleation score is 0.811 ± 0.67.

Question: For GASFMSRNIRTWMTMWCDLK, which amyloid nucleation score is on record?
Answer: The amyloid nucleation score was 0.012 ± 0.23.

Question: Which amyloid nucleation score does the source give for GATGGLSVCELVRCSELNRG here?
Answer: Its amyloid nucleation score is 0.985 ± 0.37.

Question: For GAVGARLAINGSSRWMCSWY, which amyloid nucleation score is on record?
Answer: The amyloid nucleation score was 2.39 ± 0.1.

Question: With GAWTAMSGVLMVMLWLWSVC as the substance, how does the amyloid nucleation score read?
Answer: The amyloid nucleation score was 1.83 ± 0.23.

Question: For GCGSPQSTFPRERCQVLVTA, which amyloid nucleation score is on record?
Answer: Its amyloid nucleation score is 0.829 ± 0.49.

Question: For GCHSWSNLGEWCCYIYKMVI, which amyloid nucleation score is on record?
Answer: The amyloid nucleation score was -1.14 ± 0.78.

Question: With GCMTMTWMTNYLSFHNDTFT as the substance, how does the amyloid nucleation score read?
Answer: The amyloid nucleation score was 4.26 ± 0.065.

Question: With GCNIRTNVGRLCMSYPDSNR as the substance, how does the amyloid nucleation score read?
Answer: Its amyloid nucleation score is 0.636 ± 0.18.

Question: With GCSLVKAYCSVL as the substance, how does the amyloid nucleation score read?
Answer: Its amyloid nucleation score is 0.325 ± 0.6.

Question: For GCSNVCERGS, which amyloid nucleation score is on record?
Answer: The amyloid nucleation score was “inactive”.

Question: With GCSVKFIFNHKSGYYIYLLF as the substance, how does the amyloid nucleation score read?
Answer: Its amyloid nucleation score is -0.822 ± 0.54.

Question: For GCYLVNDASPVSHLVFLPM, which amyloid nucleation score is on record?
Answer: Its amyloid nucleation score is “inactive”.

Question: For GDFVGMLYNRCGHHMVIILT, which amyloid nucleation score is on record?
Answer: Its amyloid nucleation score is -0.731 ± 0.35.

Question: Which amyloid nucleation score does the source give for GDHVVFNWRAHSSSRIVSSY here?
Answer: Its amyloid nucleation score is 1.17 ± 0.68.

Question: For GDSFLWTHS, which amyloid nucleation score is on record?
Answer: Its amyloid nucleation score is -0.994 ± 0.62.

Question: For GDYHSYGVVRSYFCATPSSG, which amyloid nucleation score is on record?
Answer: Its amyloid nucleation score is 0.64 ± 0.44.

Question: With GECRCYHQTCGFHCNLGFGY as the substance, how does the amyloid nucleation score read?
Answer: Its amyloid nucleation score is 4.7 ± 0.08.

Question: For GEGHWNYLLASFCNHGMCYF, which amyloid nucleation score is on record?
Answer: The amyloid nucleation score was 7.471 ± 0.029.

Question: Which amyloid nucleation score does the source give for GEINENGKLCGGRAQGTGTY here?
Answer: The amyloid nucleation score was -0.392 ± 0.63.

Question: With GELWCDLRILFVGVSLIVL as the substance, how does the amyloid nucleation score read?
Answer: Its amyloid nucleation score is “inactive”.

Question: For GENVVEACLWGQSQASWFIR, which amyloid nucleation score is on record?
Answer: Its amyloid nucleation score is -0.009 ± 0.55.

Question: With GEQMWGYCRLYRGTGRGALG as the substance, how does the amyloid nucleation score read?
Answer: The amyloid nucleation score was 1.85 ± 0.16.

Question: With GFDLAWSWIPFSRWFALLVN as the substance, how does the amyloid nucleation score read?
Answer: Its amyloid nucleation score is -0.486 ± 0.56.

Question: Which amyloid nucleation score does the source give for GFDSDMVPHRSSRAVLC here?
Answer: The amyloid nucleation score was 1.33 ± 0.46.

Question: With GFGCPA as the substance, how does the amyloid nucleation score read?
Answer: The amyloid nucleation score was -0.165 ± 1.

Question: Which amyloid nucleation score does the source give for GFGVPDWMFDSFSAAQLSQI here?
Answer: Its amyloid nucleation score is -0.343 ± 0.35.

Source: the supplement of paper PMC12042874
